Test [1] has as its target FcγRIII CD16 on NK cells (human (endogenous in NK cells of healthy donors)) (UniProt P08637). Kind of test: FACS; NK cells within PBMC. (In general: A flow cytometer gives signals particle by particle.)
Test [2] has the same target. Briefly: flow cytometry on cells; PBMC of healthy donors incubated with the indicated concentrations of NKG2D-Fc-ADCC, followed by an anti-human PE conjugate; EC50 from MFI by a sigmoidal dose-response curve (GraphPad Prism); one representative experiment of three.
The target in test [3] is CD3 (Homo sapiens). Kind of test: FACS; T cells within PBMC. Conditions: other; Only the NKG2D limits and the CH2 changes are printed. UCHT1 VH/VL are taken from the 1XIW scFv complex (entity order VL=3, VH=4 from memory). Human CH1/hinge and human C-kappa are assumed (KappaSelect purification, anti-human PE detection). CH2 end (EU 340) is by convention. G236 (P01857 119) is deleted; EU number = P01857 number + 117. Junction residues are not printed. Fab interchain disulfide; modification not given.

Experimental findings from PMC6542021 are described below.

Sequence of UniProt P08637 (P08637 17-254): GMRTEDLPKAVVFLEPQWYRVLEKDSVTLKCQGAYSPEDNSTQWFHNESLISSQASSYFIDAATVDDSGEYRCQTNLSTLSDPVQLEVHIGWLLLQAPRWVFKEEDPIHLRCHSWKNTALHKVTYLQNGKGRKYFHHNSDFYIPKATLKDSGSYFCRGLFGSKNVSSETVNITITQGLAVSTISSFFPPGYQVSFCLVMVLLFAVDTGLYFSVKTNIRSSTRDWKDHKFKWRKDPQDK
Sequence of CD3 (Homo sapiens) (P07766 23-207, chain 1 of 3): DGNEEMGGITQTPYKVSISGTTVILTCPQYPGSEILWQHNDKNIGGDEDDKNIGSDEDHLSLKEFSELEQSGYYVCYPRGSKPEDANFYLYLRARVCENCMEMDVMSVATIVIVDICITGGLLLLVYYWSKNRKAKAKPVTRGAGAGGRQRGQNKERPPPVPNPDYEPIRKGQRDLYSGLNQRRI
Sequence of CD3 (Homo sapiens) (P04234 22-171, chain 2 of 3, further chain): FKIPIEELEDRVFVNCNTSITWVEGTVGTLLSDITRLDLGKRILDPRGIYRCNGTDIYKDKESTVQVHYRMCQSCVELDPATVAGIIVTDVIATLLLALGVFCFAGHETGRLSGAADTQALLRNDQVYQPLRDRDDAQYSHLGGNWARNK
Sequence of CD3 (Homo sapiens) (P09693 23-182, chain 3 of 3, further chain): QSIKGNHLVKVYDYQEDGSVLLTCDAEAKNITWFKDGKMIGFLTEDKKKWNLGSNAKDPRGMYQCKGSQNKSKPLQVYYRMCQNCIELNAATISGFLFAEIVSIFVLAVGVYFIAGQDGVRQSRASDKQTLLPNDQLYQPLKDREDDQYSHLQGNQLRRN

A word on the EC50: it is the concentration that produces a half-maximal response. In turn, “NKG2D-CD16 bispecific fusion protein (from UniProt P26718 78-216)” returned an EC50 in test [1] of 2.2 nM.
In test [2], “NKG2D-Fc-ADCC fusion protein (from UniProt P26718 73-216) (Fc fusion)” returned an EC50 of 20 nM.

B1: NKG2D-CD3 bispecific fusion protein, P26718 78-216 (protein)
chain 1: EVQLQQSGPELVKPGASMKISCKASGYSFTGYTMNWVKQSHGKNLEWMGLINPYKGVSTYNQKFKDKATLTVDKSSSTAYMELLSLTSEDSAVYYCARSGYYGDSDWYFDVWGQGTTLTVFSASTKGPSVFPLAPSSKSTSGGTAALGCLVKDYFPEPVTVSWNSGALTSGVHTFPAVLQSSGLYSLSSVVTVPSSSLGTQTYICNVNHKPSNTKVDKKVEPKSCDKTHTSPPSPAPPVAGPSVFLFPPKPKDTLMISRTPEVTCVVVGVSHEDPEVKFNWYVDGVEVHNAKTKPREEQYQSTYRVVSVLTVLHQDWLNGKEYKCKVSNKQLPSPIEKTISKAKFLNSLFNQEVQIPLTESYCGPCPKNWICYKNNCYQFFDESKNWYESQASCMSQNASLLKVYSKEDQDLLKLVKSYHWMGLVHIPTNGSWQWEDGSILSPNLLTIIEMQKGDCALYASSFKGYIENCSTPNTYICMQRTV
chain 2: MDIQMTQTTSSLSASLGDRVTISCRASQDIRNYLNWYQQKPDGTVKLLIYYTSRLHSGVPSKFSGSGSGTDYSLTISNLEQEDIATYFCQQGNTLPWTFAGGTKLEIKRTVAAPSVFIFPPSDEQLKSGTASVVCLLNNFYPREAKVQWKVDNALQSGNSQESVTEQDSKDSTYSLSSTLTLSKADYEKHKVYACEVTHQGLSSPVTKSFNRGEC
In the case of B1, the EC50 in test [3] is 2.1 nM.
